Source: patent US20240352438A1, “MEANS AND METHODS FOR DETOXIFYING OCHRATOXIN A” (DSM Austria GmbH, priority 2021, published 2024)

Experiments:
[1] = Thermostability assay: residual OTA detoxification activity after 10 min incubation at 45-99° C. (T50); format: physicochemical; details: 0.1 mg/mL protein in 20 mM Tris-HCl pH 7.5, residual OTA detoxification activity relative to 4° C. reference aliquot
In short: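 Purified enzyme at 0.1 mg/mL in 20 mM Tris-HCl pH 7.5 was heated 10 min at 45–99 °C, then held at 4 °C. Residual OTA detoxification activity was expressed relative to an aliquot kept at 4 °C throughout; T50 is the temperature range giving 50% activity loss.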

[2] = OTA detoxification activity assay (specific activity, fluorescence reduction ex/em 390/450 nm); format: biochemical; details: SEQ ID NO: 1 = 100%
In short: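 Recombinant enzyme preparation with 200 ng/mL OTA in 100 mM sodium phosphate, at pH 6.0 and pH 7.5, 37° C. Degradation followed as the fall in fluorescence at ex/em 390/450 nm. Specific activity taken from the initial linear slope; one unit degrades 1 μmol OTA per min at a starting OTA of […].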

[3] = Pelleting trial: degradation of spiked OTA to OTalpha in mash feed and resuspended pellets; details: for OTalpha %: formed OTalpha; for OTA %: remaining OTA
Method: To verify the suitability of the enzymes referred to herein as additives e.g. for feed or food, pelleting trials were conducted. As an example, 1.15 U or 0.06 U of either of the enzymes having either the amino acid sequence of SEQ ID NO: 1 or 2 was homogeneously mixed with one kg of mash feed and subjected to standard feed pelleting process where the temperature of the conditioner was set to either 75, 80, 85, 90 or 95° C. in five separate batches of feed pelleting. The effect of pelleting process on the stability of enzyme was estimated by calculation of percentage degradation of spiked OTA to OTalpha in resuspended pellets. Untreated mash was analyzed applying the following protocol: 50 μL of 10 ppm OTA were spiked to g of dry sample, directly before starting the assay by adding 4.95 mL RO-water (37° C.). The suspension was incubated in 50 mL tubes in an overhead shaker at 37° C. for 60 min. The reaction was stopped by adding 1 mL 6 M phosphoric acid followed by another incubation in a rotary shaker at room temperature for 10 min. Subsequently 30 μL of ^13C-labeled OTA/^13C-labeled OTalpha (each 1 ppm) internal standard were added to each sample and mixed. 30 mL ethyl acetate were added followed by shaking for 60 min at 80 rpm on an overhead shaker. After centrifugation (10 min, 3214 rcf), 8 mL of the organic upper phase were transferred to a new 50 mL tube. 4 mL of 0.1 M NaHCO3 (pH 8.2) were added. After shaking for 1 min at 80 rpm on an overhead shaker, sample was centrifuged again (10 min, 3214 rcf) and 3 mL of the aqueous lower phase transferred to a new 15 mL tube. 70 μL 85% phosphoric acid and 1.5 mL ethyl acetate were added and shaken for 1 min at 80 rpm at an overhead shaker. After centrifugation (10 min, 3214 rcf) 50 μL organic upper phase were added to 50 μL acetonitrile in a silanized HPLC vial and thoroughly mixed. OTA and OTalpha content was determined by HPLC MS/MS method as described by Dellafiora et al. (2020, Toxins 12, 258) to determine the percentage of OTA degradation to form OTalpha.

[4] = Feeding trial in pigs: OTA concentration in plasma and urine; format: in vivo; details: for % OTA reduction, plasma samples / % OTA reduction, urine samples: day 14
Method: To further study an application of the enzymes referred to herein as additives e.g. for feed or food, feeding trials were conducted in pigs. Exemplarily, either of the enzymes having either the amino acid sequence of SEQ ID NO: 1 or 2 were produced by cultivation of E. coli transformants in bioreactors by applying methods known to a person having skill in the art. The cell broth was homogenized and centrifuged. The supernatant was concentrated, dried by lyophilization and formulated as a powder by grinding. The enzymatic activity of the thus obtained lyophilized powder was determined, and the powder was mixed with feed for the feeding trial as described in the following.
Thirteen piglet groups were studied based on the following experimental diet setups: 1) Base feed; 2) base feed+50 ppb OTA; 3) base feed+50 ppb OTA+2.62 U of the enzyme of SEQ ID NO: 1 per kg of feed; 4) base feed+50 ppb OTA+0.29 U of the enzyme of SEQ ID NO: 2 per kg of feed; 5) base feed+500 ppb OTA; 6) base feed+500 ppb OTA+2.62 U of the enzyme of SEQ ID NO: 1 per kg of feed; 7) 500 ppb OTA+0.29 U of the enzyme of SEQ ID NO: 2 per kg of feed.
Each trial group consisted of four piglets weighing approximately 7-8 kg, who were coming out from weaning and adapted to solid diet before being fed the experimental diet as described above. The duration of the feeding trial (i.e. actual days of feeding the experimental diet) was fourteen days. Collectively each trial group consumed around 15 kg of feed. No piglets fell sick to any unexpected disease throughout the feeding trial. Urine and blood samples were collected on day 0, just before starting the experimental diet, and on day 14.
Extraction of OTA was performed from plasma and urine samples for subsequent analysis by HPLC-MS. 200 μL of sample was thoroughly mixed with 800 μL of extraction solution (containing 99% of ethyl acetate and 1% of phosphoric acid, 85%) followed by centrifugation at 19000×g for 5 min for phase separation. 50 μL of upper phase was diluted with 50 μL of acetonitrile, followed by HPLC-MS analysis. The HPLC-MS method as described by Dellafiora et al. (2020, Toxins 12, 258) was used to determine the changes in OTA concentration in the samples taken during the trial upon consumption of the experimental diets. The results are shown in Table 18 using the diet setup numbering as indicated above.

[5] = mash before pelleting, 1.15 U or 0.06 U enzyme per kg mash feed, 37° C., 60 min
[6] = 500 ppb OTA+enzyme (2.62 U SEQ ID NO: 1 or 0.29 U SEQ ID NO: 2 per kg of feed)
[7] = base feed+50 ppb OTA+enzyme (2.62 U SEQ ID NO: 1 or 0.29 U SEQ ID NO: 2 per kg of feed)

Row | Molecule | T50 (temperature at which 50% of the initial activity was maintained) [1] | Specific OTA detoxification activities in % compared to the enzyme of SEQ ID NO: 1, pH 6.0 [2] [%] | Specific OTA detoxification activities in % compared to the enzyme of SEQ ID NO: 1, pH 7.5 [2] [%] | OTalpha % ([3]; after pelleting at 75° C.) [%] | OTalpha % ([3]; after pelleting at 80° C.) [%] | OTalpha % ([3]; after pelleting at 85° C.) [%] | OTalpha % ([3]; after pelleting at 90° C.) [%] | OTalpha % ([3]; after pelleting at 95° C.) [%] | OTalpha % [3, 5] [%] | OTA % ([3]; after pelleting at 75° C.) [%] | OTA % ([3]; after pelleting at 80° C.) [%] | OTA % ([3]; after pelleting at 85° C.) [%] | OTA % ([3]; after pelleting at 90° C.) [%] | OTA % ([3]; after pelleting at 95° C.) [%] | OTA % [3, 5] [%] | OTA concentration in plasma samples, Day 14 [4, 6] [ppb] | OTA concentration in urine samples, Day 14 [4, 6] [ppb] | % OTA reduction, plasma samples [4, 6] [%] | % OTA reduction, urine samples [4, 6] [%] | OTA concentration in plasma samples, Day 14 [4, 7] [ppb] | further results
1 | 49 (protein, exemplary polypeptide) MTTRTRILTAFLSLLAANACAADAAPAAPHTVVLRAARMFDGASGKLVDHPQLTIVGNKIVRIAQGDKAEVPAGAEVVDLGDATLLPGFIDAHVHLSGQSSDNWYGDFFDNMMRFPAEQALYGAYYARITLEAGFTSVRDVGSADWVALGLRNAIDAGKVPGPRMLVSNYAVGSTGGHADQDPIPPHKLPLAGPLQGVCNGPEECRAAVRYQIKYGANVIKFMPSGGVLSLSDPVDAPELSQDEMNAVIGESHAWGRKVAAHAHGDKAAKMAVAAGVDSIEHGSFIEDDTLRAMKAKNVYLVPTISAIAHVEEKIGTFPPVIAEKGRAAAAHLRQTFRHAVQIGVPIALGTDAGVGAHGSNAREFRYMVENGLTPAQALLAGTANAARLLGTFDRVGTLEAGKLADVVAVPGNPIADITVTERPLFVMKDGVVVRRDAVR | 68-70 °C | 76 | 179 | – | – | – | – | – | – | – | – | – | – | – | – | – | – | – | – | – | –
2 | 50 (protein, exemplary polypeptide) MTTRTRILTAFLSLLAANACAADAAPAAPHTVVLRAARMFDGASGKLVDHPQLTIVGNKIVRIAQGDKAEVPAGAEVVDLGDATLLPGFIDAHVHLSGQSSDNWYGDFFDNMMRFPAEQALYGAYYARITLEAGFTSVRDVGSTDWVALGLRNAIDAGKVPGPRMLVSNYPVGSTGGHADQDPIPPHKLPLAGPLQGVCNGPEECRAAVRYQIKYGANVIKFMPSGGVLSLSDPVDAPELSQDEMNAVIGESHAWGRKVAAHAHGDKAAKMAVAAGVDSIEHGSFIEDDTLRAMKAKNVYLVPTISAIAHVEEKIGTFPPVIAEKGRAAAAHLRQTFRHAVQIGVPIALGTDAGVGAHGSNAREFRYMVENGLTPAQALLAGTANAARLLGTFDRVGTLEAGKLADVVAVPGNPIADITVTERPLFVMKDGVVVRRDAVR | 64 °C | 81 | 257 | – | – | – | – | – | – | – | – | – | – | – | – | – | – | – | – | – | –
3 | SEQ ID NO: 2: exemplary OTA-hydrolyzing polypeptide 2 belonging to the amidohydrolase protein family (protein, polypeptide 2, exemplary OTA-hydrolyzing polypeptide 2 belonging to the amidohydrolase protein family) MYSLAIRNGIVFDGEKFIGKTNIYVDGDKIVKITNERLDAKEEVNAEGYFVMPGLIDAHLHLTGIRGGSLLMGYLLDDPRTRLLRAANWARELLMAGFTTVRDCGEPNSIILRNAINEGIIPGPRIIAAGSPITQTFGHAELSHSLPLEWSIQLGFGEICDGVDECIKAARKVLRSGADFIKIMATGGVLSERDRPEWPQLTPEEMSAIVREAEKVGTYVAAHAHGDKGARIAVEAGVRTIEHGSLITEETVKLMAEKGVSLTPTLSIQELIYKYGKQMGIDPWGLEKIGQVREGVINSIKLARKYGVMILAGTDLGFKTGLDIDMGKNWVEVKLLVELGGLSSEEALRAATGNASKMLRLNTGIIREGYLADIVLINGNPLENINDIARVSTVIKGGKVTVENGKLI | – | – | – | 84 | 88 | 84 | 88 | 87 | 80 | 16 | 12 | 16 | 12 | 13 | 20 | 107 ± 31 | 4 | 74 | 80 | 11 ± 3 | OTA concentration in urine samples, Day 14 [4, 7]: 0 ppb; % OTA reduction, plasma samples [4, 7]: 73%; % OTA reduction, urine samples [4, 7]: 100%
4 | SEQ ID NO: 1: mature species of exemplary OTA-hydrolyzing polypeptide 1, amidohydrolase family; lacks N-terminal amino acids 1-24 of SEQ ID NO: 318 (protein, polypeptide 1) APAAPHTVVLRAARMFDGASGKLVDHPQLTIVGNKIVRIAQGDKAEVPAGAEVVDLGDATLLPGFIDAHVHLSGQSSDNWYGDFFDNMMRFPAEQALYGAYYARITLEAGFTSVRDVGSTDWVALGLRNAIDAGKVPGPRMLVSNYAVGSTGGHADQDPIPPHKLPLAGPLQGVCNGPEECRAAVRYQIKYGANVIKFMPSGGVLSLSDPVDAPELSQDEMNAVIGESHAWGRKVAAHAHGDKAAKMAVAAGVDSIEHGSFIEDDTLRAMKAKNVYLVPTISAIAHVEEKIGTFPPVIAEKGRAAAAHLRQTFRHAVQIGVPIALGTDAGVGAHGSNAREFRYMVENGLTPAQALLAGTANAARLLGTFDRVGTLEAGKLADVVAVPGNPIADITVTERPLFVMKDGVVVRRDAVR | – | – | – | 99 | 99 | 99 | 99 | 99 | 99 | 1 | 1 | 1 | 1 | 1 | 1 | 168 ± 41 | 7 ± 1 | 59 | 65 | 19 ± 2 | OTA concentration in urine samples, Day 14 [4, 7]: 0 ppb; % OTA reduction, plasma samples [4, 7]: 54%; % OTA reduction, urine samples [4, 7]: 100%
